# Test results as given in patent US20160257732A1.
# Residue numbers refer to the chain shown, from its start.
# B1: Antibody 5 (antibody, V domains shown)
# VH: QVQLQQSGPGLVKPSQTLSLTCAISGDRVSSNSAVWNWIRQSPSRGLEWLGRTYYRSKWYYDYAESVKSRIVIDPDTSKNQVSLQLNSVTPEDSAIYYCARGGHITVFGLNIDAYDIWGQGAMVTVSS
# VL: DIQMTQSPSSLSASVGDRVTISCRAQSLSSYLHWYQQKPGQPPKLLIYAATTLQSGVPSRFSGSGSGTDFTLTISTFQAEDVATYYCQQSRTFGQGTKVEIK
# B2: Antibody 6 (antibody, V domains shown)
# VH: B1 VH with V107E
# VL: B1 VL
# B3: Antibody 8 (antibody, V domains shown)
# VH: QVQLQQSGPGLVKPSQTLSLTCVISGDTVSSNRATWNWMRQSPLRGLEWLGRTYYRSKWYNDYAVSVKSRVVINPDTSKNQVSLQLNTVTPDDSGVYFCARGGHITVFGVNIDAFDIWGLGTKVTVSS
# VL: DIQMTQSPSSLSASVGDRVTISCRASQRLNSYLHWYQQTPGQAPKLLIYATSTLQSGVSPRFSGSGSGTDFTLTISSLQPEDVATYYCQLSRTFGHGTKVEIK
# B4: Antibody 10 (antibody, V domains shown)
# VH: QVQLQQSGPGLVKPSQTLSLTCAISGDSVSSNSATWNWIRQSPSRGLEWLGRTYYRSKWYNDYADFLKRRITINPDTSNNEVSLRLTSVTPDDTALYYCARGGHITVFGVNIDAFDVWGQGTMVTVSS
# VL: DIQMTQSPSSLSASVGDRITISCRTSQSLRSYLHWYQQKPGKAPKLLIYASSTLQSGVPSRFSGSGSGTDFTLTISNLQPEDFATYYCQLSRTFGQGTKVEIK
# Assays:
# [1] = biological target: recombinant HA (rHA), subtype H9 (A/chicken/HK/G9/97(H9N2)) (influenza A virus); test: ELISA, coated rHA
# [2] = biological target: recombinant HA (rHA), subtype H3 (A/Perth/16/09 (H3N2)) (influenza A virus); test: ELISA, coated rHA
# [3] = biological target: recombinant HA (rHA), subtype H6 (A/teal/HK/W312/97(H6N1)) (influenza A virus); test: ELISA, coated rHA
# [4] = biological target: recombinant HA (rHA), subtype H2 (A/Swine/MO/06 (H2N3)) (influenza A virus); test: ELISA, coated rHA
# [5] = biological target: recombinant HA (rHA), subtype H5 (A/Vietnam/1203/04(H5N1)) (influenza A virus); test: ELISA, coated rHA
# [6] = biological target: recombinant HA (rHA), subtype H7 (A/Netherlands/219/03(H7N7)) (influenza A virus); test: ELISA, coated rHA
# [7] = biological target: His-tagged HA subtype H3 (A/Perth/16/09 (H3N2)) (influenza A virus); test: Octet BLI, His-tagged HA on anti-His sensors
# [8] = biological target: His-tagged HA subtype H1 (A/California/7/04 (H1N1)) (influenza A virus); test: Octet BLI, His-tagged HA on anti-His sensors
Binder,EC50 [1],EC50 [2],EC50 [3],EC50 [4],EC50 [5],EC50 [6],Kd [7],koff [7],kon [7],Kd [8],koff [8],kon [8]
B1,> 6 µg/mL,0.03 µg/mL,0.047 µg/mL,0.048 µg/mL,0.041 µg/mL,0.024 µg/mL,0.338 nM,8.8e-05 s⁻¹,260000 M⁻¹ s⁻¹,5 pM,< 5e-06 s⁻¹,1e+06 M⁻¹ s⁻¹
B2,> 6 µg/mL,0.064 µg/mL,0.214 µg/mL,0.213 µg/mL,0.256 µg/mL,0.116 µg/mL,,,,,,
B3,> 6 µg/mL,0.067 µg/mL,0.091 µg/mL,0.058 µg/mL,0.044 µg/mL,0.015 µg/mL,,,,,,
B4,2.7 µg/mL,0.049 µg/mL,0.097 µg/mL,0.075 µg/mL,0.058 µg/mL,0.034 µg/mL,,,,,,
